# Earlier results in US11414673B2, “Hypersensitive ABA receptors having modified PP2C-binding interfaces” (THE REGENTS OF THE UNIVERSITY OF CALIFORNIA, priority 2017, dated 2022).
# Test system: ABA responses
# Conditions: Pizzio et al., Plant Physiol. 163, 441-455 (2013)
molecule,measurement,value
"PYL4^A194T: PYL4 ABA receptor with A194T mutation in its carboxyl terminus, described by Pizzio et al. (protein, UniProt O80920 1-207, looked up, variant A194T) Abscisic acid receptor PYL4: MLAVHRPSSAVSDGDSVQIPMMIASFQKRFPSLSRDSTAARFHTHEVGPNQCCSAVIQEISAPISTVWSVVRRFDNPQAYKHFLKSCSVIGGDGDNVGSLRQVHVVSGLPAASSTERLDILDDERHVISFSVVGGDHRLSNYRSVTTLHPSPISGTVVVESYVVDVPPGNTKEETCDFVDVIVRCNLQSLAKITENTAAESKKKMSL","ABA concentration needed to elicit measured ABA responses, in comparison to wild type PYL4",requires lower concentrations of ABA
